Measured values reported in the nanobody polyreactivity screen of Harvey et al. (2022).

Test: yeast display, Sf9 membrane polyspecificity reagent, FACS + sequencing; frameworks hold sequencing errors
Outline: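 Using colony PCR, genes from sorted yeast display clones were amplified, then sequenced on MiSeq at 2 × 250 and filtered by CDR length. The clones had been stained with 10% biotinylated, detergent-solubilized Sf9 membrane reagent for 1 hour at 4 °C and sorted by FACS into low and high (top ~1%) gates on anti-HA and streptavidin fluorescence. Polyreactivity labels come from the gate of origin.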

| Sequence | polyreactivity (PSR sort gate) |
| --- | --- |
| QVQLVESGGGLVHAGGSLRLSCAASGRTFYIYAMGWYRQAPGKERELVAAISKSGGRTYYADSVKGRITISRDNAKNTVYLQMNSLKPEDTAVYYCNKLVGDDTALYDYWGQGTQVTVSS | high polyreactivity |
| QVQLVESGGGLVHAGGSLRLSCAASGRTFYIYAMGWYRQAPGKERELVADITSGGSTYYADSVKGRFTISRDNAKNTVYLQMNSLKPEDTAVYYCAADWVTFYSYTEYDYWGQGTQVTVSS | low polyreactivity |
| QVQLVESGGGLVHAGGSLRLSCAASGSIFDWNAMGWYTQAPGKERELVATISWDGGSTYYADSVKGRFTISRDNAKNTVYLQMNSLKPEDTAVYYCATVFTGKPAFYARTKYDYWGQRTQVTVSS | low polyreactivity |
| QVQLVESGGGLVHAGGSLRLSCAASGSIFEFYAMGWYRQAPGKERELVAAITWDDGSTYYADSVKGRFTISRDNAKNTVYLQMNSLKPEDTAVYYCAASASVRGGGADQYVIAFDYWGQGTQVTVSS | low polyreactivity |
| QVQLVESGGGLVHAGGSLRLSCAASGSIFGRNAMGWYRQPPGKERELVARISSRGGSTYYADSVKGRFTISRDNAKNTVYLQMNSLKPEDTAVYYCNRDRTSQTNDYWGQGNQVTVSS | high polyreactivity |
| QVQLVESGGGLVHAGGSLRLSCAASGSIFKVYAMGWYRQAPGKERELVASITSGGRTYADSVKGRFTISRDNAKNTVYLQRNSLKPEDTAVYYCSARSRSKFYYWGQGTQVTVSS | high polyreactivity |
| QVQLVESGGGLVHAGGSLRLSCAASGSIFPVNAMGWYRQAPGKERELVAAITSSGGTTYYADSVKGRFTISRDYAKITVYLLMNSLKPVDTAVYYCAADVDVSYWRMEYWGQGTQVTVSS | high polyreactivity |
| QVQLVESGGGLVHAGGSLRLSCAASGSIFSWYDMGWYRQAPGKERELVADISSGGSTNYADSVKGRFTISRDNAKNTVYLQMNSMKPEDTAVYYCNARLGYLYDYWGQGTQVTVSS | low polyreactivity |
| QVQLVESGGGLVHAGGSLRLSCAASGSIFVGYAMGWYRQAPGKERELVARISRSGTSTYYADSVKGRFTISRDNAKNTVYLQMNSLKPEDTAVYYCNATVSRYSGYQRGHYWRYDYWGQGTQVTVSS | high polyreactivity |
| QVQLVESGGGLVHAGGSLRLSCAASGSIFYEYAMGWYRQAPGKERELVASINRGGGSTYYADSVKGRFTISRDNAKNTVYLQMNSLKPEDTAVYYCAAQWKYRQSYLDYYWGQGTQVNVSS | low polyreactivity |
| QVQLVESGGGLVHAGGSLRLSCAASGSIIEAYAMGWYRQAPGKEMELVAVISTGGGSTSYADSVKGRFTISRDNAKNTVYLQMNSLKPEDTAVYYCAAEYRWSYFRTYYSWGQGTQVTVSS | low polyreactivity |
| QVQLVESGGGLVHAGGSLRLSCAASGSIYVDNAMGWYRQAPGTERELVAVISWIGSSTYYADSVKGRFTISRDNAKYTVYFQMNSLNPEDTAVFYCAAAPSRTLLRQSKYYFWGQGTQVNVSS | low polyreactivity |
| QVQLVESGGGLVHAGGSLRLSCAASGSIYYGNAMGWYIQAPGKERELVARISWSGSNTRYADSVKGRFTISRDNSKITVYLQMNSLKPEDTAVYYCNRGSYQTSFFRYDYWGQGTQVTVSS | high polyreactivity |
| QVQLVESGGGLVHAGGSLRLSCAASGSTFGFYARGWYRQAPGKERELVAAITTGGSTNYADSVKGRFTISRVNAKNTVYLQMYSLKPEDSAVYYCHADVYWNPYYDYDYWGQGTLVTVSS | high polyreactivity |
| QVQLVESGGGLVHAGGSLRLSCAASGSTFHTYDMGWYRKAPWKERELVAAITSRDSTHYADSVKGCFTISRDNAKNTVYLQMNSLKPEDTAVYYCAASAPYLYYRSAYYYWGQGTQVTVSS | low polyreactivity |
| QVQLVESGGGLVHAGGSLRLSCAASGSTFPSYAMGWYRQAPGKERELVAAINSGGGTYYADSVKGRFTISRDNAKNTVYLQRNSLKPEDTAVYYCATSRYDYTKTEGGYWGQGNQVTVSS | low polyreactivity |

| Sequence | polyreactivity (PSR sort gate) |
| --- | --- |
| QVQLVESGGGLVHAGGSLRLSCAASGSTFRLYSMGWYRQAPGKERELVAAISSNGVRTYYADSVKGRFTISRDNAKNTVYLQMNSLKPEDTAVYYCAARVYPAYPRGYDYWGQGTQVTVSS | high polyreactivity |
| QVQLVESGGGLVHAGGSLRLSCAASGSTFSWYVMGWYRQAPGKERELVAAISYRGGRTYYADSVKGRFTISRDNAKNTVYLHMNSLKTEDTAVYYCAARGVVDAGRTNRPYDYWGQGTQVTVSS | low polyreactivity |
| QVQLVESGGGLVHAGGSLRLSCAASGSTSVYYAMGWYRQTPGKERELVAAITWDDGSTSYADSVKGRFTISRDNAKNTVYLQMNSLNPEDTAVYYCAKDYEYLGAFNYWGQGTQVTVSS | low polyreactivity |
| QVQLVESGGGLVHAGGSLRLSCAASRYTFVNYAMGWYSQAPGKERELVAAITSRGSSTYYADSVKGRFTLSRDNAKNTVYLQMNSLNPEDTAVYYCYVHVRNHDYWGEGTQVTVSS | high polyreactivity |
| QVQLVESGGGLVHAGGSLRLSCAPSGSNFCFNAMGWYRQAPGKERELVAAIPSRGGSTYYADSVKGRFTISRDNAKNTVYLQMNSLKPEDTAVYYCNADHRDTFIWVGLPHMDYWGQGTQVTVSS | low polyreactivity |
| QVQLVESGGGLVHAGGSLRLSCASSGFTFWKYAIGGYRQAPGKERELVATISLGGARTYYADSVKGRFTISLDNAKNTVYLQMNSLKPEDTAVYYCNARCRWTANFDYWVQGTQVTVSS | high polyreactivity |
| QVQLVESGGGLVHAGGSLRLSCDASGFTFAGYSMGWYRQAPGKERELVAGIRSSGARTYYADSVKGRFTISRDNAKTTVYLQKNILKPEHTAVYYCAKTDGFYSGYGYWGQGTQVTVSS | low polyreactivity |
| QVQLVESGGGLVHAGGSLRLSCDASGITFWAYAMGWYRQAPGKEREFVAAITVSTGSTFYADSVKGRFTISRDNAKNTVYLQMNSLKREDTALYYCAAPQDGTWWLPAGGYWGQGTQVTVSS | low polyreactivity |
| QVQLVESGGGLVHAGGSLRLSCDASGLTFAYYAMGWYRQAPGKERELVAAISWNGGRTYYADSVKGRFTISRDNAKNTVYLQMNSLKPEDTAVYYCAAQVTSSFYWGQGTQVTVSS | high polyreactivity |
| QVQLVESGGGLVHAGGSLRLSCSASGFTFYKYAMGWYRQAPGKERELVAAFSYSGGSTYYADSVKGRFTISRDNAKNTVYLQMNSLKPEDTAVYYCAARVRGTGYNSWGQGTLVTVSS | high polyreactivity |
| QVQLVESGGGLVHAGGSLRLSSAASGGIFKYNPMGWYRQAPGTERELVARISFGGSRTYYADSVKGRFTISRDNAKNTCYVQMNSLKPADTAVYYCARRVTGTLYYTGYDYWGQGTQVTVSS | high polyreactivity |
| QVQLVESGGGLVHAGGSLRLSSAASGLIFGWYAMGWYRPAPGKEREFVASIRDGGGSTYYADSVNGRFTISRDNANNTVFLEMHSLKPEDSAVYYFAADRYPWHLQYVEYDSDFWGQGTQVTVSS | low polyreactivity |
| QVQLVESGGGLVHAGGSLRVSCAASGFTFYLYTMGWYRQAPGTERELVAAINYSGGRTYYADSVKGRFTISRDYAKNSVYLQMNSLKPEDTAVYYCYPRVKNLQAYDYWGQGTQVTVSS | high polyreactivity |
| QVQLVESGGGLVHAGGSLSLSCAAYYAMGWYRQAPGKERELVAAIDDCTSTNYADSVKGRFTISRDNAKNTVYLQMNSLKPEDTAVDYCNKLSEVTYYGSKFDYWGQGTQVTVSS | low polyreactivity |
| QVQLVESGGGLVHAGGTLSLSCADSGFTYVLYGMGWYRQEPGKESELVASITWNGVGTYYADSVKGRFTIARDNAKNTVYLHMNSLKPEDTSVYFCHADDPDLASYLGVDYWGQGSQVTVSS | high polyreactivity |
| QVQLVESGGGLVKAAGSLRLSSAASGSIFSYNAMGWNRQAPGKERELVAAITFTAGNTYYADSVKGRFTISRDNAKNTVYLQMNILKPEDTAVYYCAATIQSYREDDNWGQGTQVTVSS | low polyreactivity |
